The source of these data is PMC3897223 (Biochemistry, 2013).

This assay concerns the target T1, AtsB, anaerobic sulfatase maturating enzyme from Klebsiella pneumoniae, wild type, reconstituted (Klebsiella pneumoniae, UniProt Q9X758 1-395).
T1 sequence (looked up): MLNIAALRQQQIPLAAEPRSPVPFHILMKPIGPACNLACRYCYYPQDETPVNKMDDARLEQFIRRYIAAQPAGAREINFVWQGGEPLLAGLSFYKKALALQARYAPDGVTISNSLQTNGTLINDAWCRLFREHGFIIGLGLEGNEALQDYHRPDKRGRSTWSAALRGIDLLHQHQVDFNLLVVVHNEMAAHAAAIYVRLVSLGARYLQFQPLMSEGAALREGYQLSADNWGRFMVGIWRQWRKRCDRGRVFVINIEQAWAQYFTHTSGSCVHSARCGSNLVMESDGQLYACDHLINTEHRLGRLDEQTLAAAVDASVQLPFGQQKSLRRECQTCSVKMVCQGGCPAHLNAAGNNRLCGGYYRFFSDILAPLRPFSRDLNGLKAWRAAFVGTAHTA
The experiment in a line: SEC. A general note: In gel filtration, larger molecules generally elute earlier.

Where no end group is shown, it is not given here.

In the case of Ac-YYTSPMSAPARSMLLTGN [Kp18Ser peptide substrate], the binding result is on record as “binds”.
